Article PMC3991421

Target: hydroxycoumarin-labeled M2 C terminus (…) (influenza A virus)
Test: […]; fluorescence anisotropy, equilibrium; […], in triplicate

With “purified LC3 (from UniProt Q9GZQ8 1-120) (natural protein)” the Kd was 9.5 µM.
